Test results taken from patent US20110300158A1 (GlaxoSmithKline, published 2011).
Positions count from the first letter of the chain named. Blank lines part the entries; values can stand above or below the binder they belong to.

Key:
[1] = molecular target: T1, Human Serum Albumin (human, UniProt P02768 25-609); experiment: SPR (BIAcore)
T1 construct: immobilised on CM5 chips; also called HSA; human SA
Method: (§1) Binding to HSA, CSA, MSA and RSA by BIAcore was confirmed using purified protein at 3 concentrations 1 μM, 500 nM and 50 nM.

[2] = molecular target: T2, Cynomolgus monkey Serum Albumin (Cynomolgus monkey, UniProt A2V9Z4 25-608); experiment: SPR (BIAcore)
T2 construct: also called CSA; cyno SA
T2 sequence (A2V9Z4 25-608 limits assumed): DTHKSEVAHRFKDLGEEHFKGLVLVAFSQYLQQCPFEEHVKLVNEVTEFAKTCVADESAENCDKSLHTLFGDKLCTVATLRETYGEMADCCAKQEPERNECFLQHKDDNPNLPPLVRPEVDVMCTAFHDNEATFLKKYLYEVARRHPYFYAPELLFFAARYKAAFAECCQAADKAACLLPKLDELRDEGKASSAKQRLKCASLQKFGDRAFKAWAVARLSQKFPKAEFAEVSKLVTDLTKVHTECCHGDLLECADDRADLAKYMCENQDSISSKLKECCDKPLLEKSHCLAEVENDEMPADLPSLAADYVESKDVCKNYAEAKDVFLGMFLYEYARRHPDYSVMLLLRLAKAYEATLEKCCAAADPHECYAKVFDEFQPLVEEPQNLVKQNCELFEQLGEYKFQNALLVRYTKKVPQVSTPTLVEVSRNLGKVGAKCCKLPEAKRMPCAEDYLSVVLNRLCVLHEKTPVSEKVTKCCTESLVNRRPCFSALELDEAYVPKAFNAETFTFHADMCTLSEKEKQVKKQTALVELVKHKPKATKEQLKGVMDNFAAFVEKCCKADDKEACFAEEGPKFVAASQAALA
Method: as §1

[3] = molecular target: T3, Rat Serum Albumin (rat, UniProt P02770 25-608); experiment: SPR (BIAcore), DOM1m-21-23 fusion against unfused dAb
T3 construct: also called RSA; rat SA
T3 sequence (P02770 25-608 limits assumed): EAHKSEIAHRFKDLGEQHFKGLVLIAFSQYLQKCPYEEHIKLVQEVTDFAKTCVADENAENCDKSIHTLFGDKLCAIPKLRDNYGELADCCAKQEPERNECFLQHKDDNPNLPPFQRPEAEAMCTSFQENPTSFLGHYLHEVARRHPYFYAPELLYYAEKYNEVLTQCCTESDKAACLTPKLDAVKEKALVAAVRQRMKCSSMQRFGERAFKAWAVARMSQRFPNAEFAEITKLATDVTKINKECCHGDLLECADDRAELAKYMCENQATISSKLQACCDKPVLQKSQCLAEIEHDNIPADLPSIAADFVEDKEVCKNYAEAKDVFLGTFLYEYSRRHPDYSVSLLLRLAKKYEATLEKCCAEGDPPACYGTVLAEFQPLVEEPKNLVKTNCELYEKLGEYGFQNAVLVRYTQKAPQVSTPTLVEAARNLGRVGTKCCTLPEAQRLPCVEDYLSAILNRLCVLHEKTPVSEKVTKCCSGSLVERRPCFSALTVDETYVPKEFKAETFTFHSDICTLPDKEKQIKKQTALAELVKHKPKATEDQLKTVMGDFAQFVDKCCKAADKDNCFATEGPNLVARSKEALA

[4] = molecular target: T3, Rat Serum Albumin; experiment: SPR (BIAcore), DOM1m-21-23 fusion; albumin taken as RSA from the sentence before; fused to DOM1m21-23
[5] = molecular target: T2, Cynomolgus monkey Serum Albumin; experiment: SPR (BIAcore), second independent experiment
[6] = molecular target: T1, Human Serum Albumin; experiment: SPR (BIAcore), second independent experiment
[7] = molecular target: T4, mouse serum albumin (mouse, UniProt P07724 25-608); experiment: SPR (BIAcore), second independent experiment
T4 construct: also called MSA; mouse SA
T4 sequence (P07724 25-608 limits assumed): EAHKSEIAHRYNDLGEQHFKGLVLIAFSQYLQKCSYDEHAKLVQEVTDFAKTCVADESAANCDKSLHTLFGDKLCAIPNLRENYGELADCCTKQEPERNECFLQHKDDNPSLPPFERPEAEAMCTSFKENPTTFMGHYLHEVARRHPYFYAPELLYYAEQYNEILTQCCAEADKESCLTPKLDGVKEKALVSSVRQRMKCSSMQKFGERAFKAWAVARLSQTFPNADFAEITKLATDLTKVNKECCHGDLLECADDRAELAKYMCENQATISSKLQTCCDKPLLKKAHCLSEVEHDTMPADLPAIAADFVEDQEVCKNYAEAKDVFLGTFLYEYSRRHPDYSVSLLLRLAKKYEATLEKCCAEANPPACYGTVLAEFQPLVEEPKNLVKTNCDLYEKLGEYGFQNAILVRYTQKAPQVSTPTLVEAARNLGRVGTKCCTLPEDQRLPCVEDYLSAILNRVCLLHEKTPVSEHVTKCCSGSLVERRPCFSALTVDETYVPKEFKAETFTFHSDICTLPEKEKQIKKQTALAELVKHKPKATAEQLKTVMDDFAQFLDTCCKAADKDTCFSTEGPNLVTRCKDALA

[8] = molecular target: T3, Rat Serum Albumin; experiment: SPR (BIAcore), second independent experiment
[9] = molecular target: T4, mouse serum albumin; experiment: SPR (BIAcore)
Method: as §1

[10] = molecular target: T3, Rat Serum Albumin; experiment: SPR (BIAcore)
Method: as §1

kon [2]: 5.8e+06 M⁻¹ s⁻¹
B2: DOM7h-11-15 (other)
VL: DIQMTQSPSSLSASVGDRVTITCRASRPIGTMLSWYQQKPGKAPKLLILAFSRLQSGVPSRFSGSGSGTDFTLTISSLQPEDFATYYCAQAGTHPTTFGQGTKVEIKR
notes: Vk dAb; pDOM5 myc tag not included; also called DOM7-11-15; DOM7h-12-15

fold decrease in affinity compared to the unfused AlbudAb [3]: 2 fold
B5: DOM7h-11-15/DOM1m-21-23 fusion DMS number 5517 (bispecific antibody)
chain: EVQLLESGGGLVQPGGSLRLSCAASGFTFNRYSMGWLRQAPGKGLEWVSRIDSYGRGTYYEDPVKGRFSISRDNSKNTLYLQMNSLRAEDTAVYYCAKISQFGSNAFDYWGQGTQVTVSSASTSGPSDIQMTQSPSSLSASVGDRVTITCRASRPIGTMLSWYQQKPGKAPKLLILAFSRLQSGVPSRFSGSGSGTDFTLTISSLQPEDFATYYCAQAGTHPTTFGQGTKVEIKRAAAEQKLISEEDLN
notes: also called DMS5517

Kd [5]: 7.83 µM | koff [5]: 0.11 s⁻¹ | kon [5]: 14300 M⁻¹ s⁻¹ | Kd [6]: 1.26 µM | koff [6]: 0.067 s⁻¹ | kon [6]: 54000 M⁻¹ s⁻¹ | Kd [7]: 33 nM | koff [7]: 0.0706 s⁻¹ | kon [7]: 2.11e+06 M⁻¹ s⁻¹ | Kd [8]: 6.12 µM | koff [8]: 0.0554 s⁻¹ | kon [8]: 9000 M⁻¹ s⁻¹ | Kd [9]: 35 nM | koff [9]: 0.023 s⁻¹ | kon [9]: 870000 M⁻¹ s⁻¹ | Kd [10]: 30 nM | koff [10]: 0.029 s⁻¹ | kon [10]: 1.55e+06 M⁻¹ s⁻¹
B7: DOM7h-14-36 (other)
VL: DIQMTQSPSSLSASVGDRVTITCRASQWIGSQLSWYQQKPGKAPKLLIMWRSSLQSGVPSRFSGSGSGTDFTLTISSLQPEDFATYYCAQGFKKPRTFGQGTKVEIKR
notes: Vk dAb; tag not included

Continued, binder first:

B1: DOM7h-11 (other)
VL: B2 VL with M32T, L49W, A50F, F51G
notes: Parental Vk dAb; also called DOM7h-12
Kd [1]: 2800 nM | koff [1]: 0.641 s⁻¹ | kon [1]: 700000 M⁻¹ s⁻¹

B3: DOM7h-11-12/DOM1m-21-23 fusion DMS number 5516 (bispecific antibody)
chain: B5 chain with A177F, F178G
notes: also called DMS5516
fold decrease in affinity compared to the unfused AlbudAb [3]: 2 fold

B4: DOM7h-11/DOM1m-21-23 fusion DMS number 5515 (bispecific antibody)
chain: B5 chain with M159T, L176W, A177F, F178G
notes: also called DMS5515; 'the DOM7h-12 clone' when fused
Kd [4]: 2800 nM

B6: DOM7h-14-28 (other)
VL: B7 VL with F92A, K93A, K94L, R96K
notes: Vk dAb; tag not included
Kd [5]: 0.136 µM | koff [5]: 0.134 s⁻¹ | kon [5]: 980000 M⁻¹ s⁻¹ | Kd [6]: 8.26 µM | koff [6]: 0.056 s⁻¹ | kon [6]: 6780 M⁻¹ s⁻¹ | Kd [7]: 31 nM | koff [7]: 0.0715 s⁻¹ | kon [7]: 2.28e+06 M⁻¹ s⁻¹ | Kd [8]: 0.14 µM | koff [8]: 0.114 s⁻¹ | kon [8]: 830000 M⁻¹ s⁻¹ | Kd [2]: 66 nM | koff [2]: 0.13 s⁻¹ | kon [2]: 2.5e+06 M⁻¹ s⁻¹ | Kd [1]: 30 nM | koff [1]: 0.033 s⁻¹ | kon [1]: 1.24e+06 M⁻¹ s⁻¹ | Kd [9]: 26 nM | koff [9]: 0.034 s⁻¹ | kon [9]: 1.6e+06 M⁻¹ s⁻¹ | Kd [10]: 45 nM | koff [10]: 0.07 s⁻¹ | kon [10]: 2.1e+06 M⁻¹ s⁻¹
